Source: PMC4841919 (Neurobiology of aging, 2016)

B1: V5- and myc-tagged STEP61 (wild type) (enzyme, UniProt P54830-1 1-541, looked up)
chain: MCCSERLLGLPQPVEMEAPDEAEGLPSKQKEMPPPPPPSPPSEPAQKLPPQGAGSHSLTVRSSLCLFAASQFLLACGVLWLSGHGHSWLQNTTDLISSSLTVLNHLGPVAWLGSGTWGIPSLLLVSLTVSLVIVTTLVWHLLKAPPEPPAPLPPEDRRQSVSRQPSFTYSEWMEEKVEDDFLDLDAVPETPVFDCVMDIKPETDPASLTVKSMGLQERRGSNVSLTLDMCTPGCNEEGFGYLVSPREESAHEYLLSASRVLRAEELHEKALDPFLLQAEFFEIPMNFVDPKEYDIPGLVRKNRYKTILPNPHSRVRLTSPDPEDPLSSYINANYIRGYSGEEKVYIATQGPIVSTVADFWRMVWQERTPIIVMITNIEEMNEKCTEYWPEEQVVHDGVEITVQKVIHTEDYRLRLISLRRGTEERSLKHYWFTSWPDQKTPDRAPPLLHLVREVEEAAQQEGPHCSPIIVHCSAGIGRTGCFIATSICCQQLRREGVVDILKTTCQLRQDRGGMIQTCEQYQFVHHAMSLYEKQLSLQSSE

Legend:
[1] = molecular target: striatal-enriched tyrosine phosphatase STEP61 (endogenous, rat brain) (rat (endogenous in Sprague-Dawley rat brain)); experiment: non-reducing SDS-PAGE and immunoblot
[2] = molecular target: the molecule itself; experiment: non-reducing SDS-PAGE and immunoblot

Molecule	dimer band after N-acetyl cysteine, percent of untreated aged control, cortex [1]	fold increase of the dimer band in aged rats, cortex [1] [fold]	fold increase of the dimer band in aged rats, hippocampus [1] [fold]	stoichiometry N [1]	stoichiometry N [2]
striatal-enriched tyrosine phosphatase STEP61 (endogenous, rat brain) (enzyme)	59.4 % of control	6.2	5.9	2	
B1					≥ 2
